From patent US20230074436A1 (DENALI THERAPEUTICS, published 2023)
Where two headings read alike, the source gives them in different places.

Assays:
[1] = target: T1, alpha-synuclein peptide 1-61 (human); assay: peptide ELISA
T1 construct: synthetic peptide coated on plate
Method: (§1) 96-well Nunc plates were coated with 1 pg/mL of the indicated synthetic peptide in PBS 50 μL/well overnight. The plates were washed three times with PBST, then blocked with 150 μL of 3% BSA in PBS for 1 hour. Purified antibody was diluted by serial dilution methods, from 10 pg/mL to 0.6 ng/ml, and 50 μL of the antibody solution was added to the peptide-coated wells. The plates were incubated for 1 hour at room temperature, then washed three times with PBST. Secondary detection antibody, goat anti-rat HRP (obtained from Southern Biotech) 1:5,000 diluted in BSA-PBS, was added to a concentration of 50 μL/well. Plates were incubated for one hour and washed three times with PBST. Plates were then developed with 50 μL/well of TMB substrate (obtained from Thermo Fisher) and quenched with 50 μL/well of 1 N sulfuric acid. The signal was quantified on a BioTek® plate reader at A450.

[2] = target: T2, alpha-synuclein peptide 95-140 (human); assay: ELISA, plate coated with the peptide or protein, antibody titrated, anti-rat HRP, A450
T2 construct: synthetic peptide coated on plate
Method: as §1

[3] = target: T1, alpha-synuclein peptide 1-61; assay: as above
Method: as §1

[4] = target: T2, alpha-synuclein peptide 95-140; assay: peptide ELISA, coated fragment
Method: as §1

[5] = target: T3, human alpha-synuclein oligomers (human, UniProt P37840 1-140); assay: SPR; SPR; aSyn oligomers
[6] = target: T4, human alpha-synuclein monomer (human, UniProt P37840 1-140); assay: SPR (Biacore), aSyn monomers
Method: (§2) Serial 3-fold dilutions of aSyn were injected at a flow rate of 30 μL/min. Each sample was analyzed using a 3-minute association and a 10-minute dissociation. After each injection, the chip was regenerated using 3 M MgCl₂. Binding response was corrected by subtracting the RU from a flow cell capturing an irrelevant IgG at similar density. A 1:1 Languir model of simultaneous fitting of kₒₙ and koff was used for kinetics analysis.

[7] = target: T4, human alpha-synuclein monomer; assay: SPR (Biacore 8K), IgG captured on anti-human Fc, aSyn monomer injected
Method: as §2

[8] = target: T5, human alpha-synuclein pre-formed fibrils (human, UniProt P37840 1-140); assay: SPR; SPR; aSyn fibrils
[9] = target: T3, human alpha-synuclein oligomers; assay: KinExA kinetic exclusion assay
[10] = target: T4, human alpha-synuclein monomer; assay: KinExA kinetic exclusion assay
[11] = target: T5, human alpha-synuclein pre-formed fibrils; assay: KinExA kinetic exclusion assay
[12] = target: T4, human alpha-synuclein monomer; assay: SPR; SPR; aSyn monomers
[13] = target: T6, mouse alpha-synuclein (mouse, UniProt O55042 1-140); assay: ELISA, coated mouse alpha-synuclein
Method: (§3) 96-well Nunc plates were coated with 50 μL of recombinant human, mouse, or rat alpha-synuclein at a concentration of 1 μg/mL in PBS at 4° C. overnight. The plates were then washed three times with PBST and blocked with PBS containing 3% BSA at room temperature for 1 hour. Purified antibody was diluted by serial dilution methods, from 10 μg/mL to 0.6 ng/mL, and 50 μL of the antibody solution was added to the alpha-synuclein-coated wells. The plates were incubated for 1 hour at room temperature, then washed three times with PBST. Secondary detection antibody (goat anti-rat HRP (obtained from Southern Biotech)) was added 50 μL/well, 1:5,000 diluted in BSA-PBS solution. Plates were incubated for 1 hour at room temperature, then washed three times with PBST. Plates were subsequently developed with 50 μL/well of TMB substrate (Thermo Fisher) and quenched with 50 μL/well of 1 N sulfuric acid. The signal was quantified on a BioTek® plate reader at A450.

[14] = target: T4, human alpha-synuclein monomer; assay: ELISA, coated human alpha-synuclein
[15] = target: alpha-synuclein peptide 1-112 (human); assay: peptide ELISA
Method: as §1

[16] = target: T7, alpha-synuclein peptide 1-95 (human); assay: peptide ELISA
T7 construct: synthetic peptide coated on plate
Method: as §1

[17] = target: T5, human alpha-synuclein pre-formed fibrils; assay: competition ELISA: fibrils titrated in solution against 0.6 nM antibody, free antibody read on aSyn-coated plate
Method: Purified antibody was probed with different concentrations of alpha-synuclein fibrils in solution, and the levels of unbound antibody were measured by ELISA analysis. In this experiment, 0.6 nM (0.1 μg/mL) of purified antibody was dissolved in phosphate-buffered saline (PBS) solution. […] The mixtures were gently shaken at room temperature for 1 hour to reach equilibrium. After that, these samples were transferred to an alpha-synuclein protein-coated ELISA plate and incubated for 5 minutes. During this short incubation, antibody that was not associated to antigen in the previous solution could instead bind onto the plate, and thus be quantified using a standard ELISA technique. By this means, it was possible to determine the amount of free antibody in the initial mixture with alpha-synuclein fibrils at indicated concentrations.

[18] = target: T2, alpha-synuclein peptide 95-140; assay: ELISA, plate coated with the peptide or protein, antibody titrated, anti-rat HRP, A450; remark: listed apart in the source
Method: as §1

[19] = target: T4, human alpha-synuclein monomer; assay: as above
Method: as §1

[20] = target: alpha-synuclein peptide 1-112 (human); assay: as above
Method: as §1

[21] = target: T1, alpha-synuclein peptide 1-61; assay: as above; remark: listed apart in the source
Method: as §1

[22] = target: T8, alpha-synuclein peptide 61-140 (human); assay: as above
T8 construct: synthetic peptide coated on plate
Method: as §1

[23] = target: T7, alpha-synuclein peptide 1-95; assay: as above
Method: as §1

[24] = target: T3, human alpha-synuclein oligomers; assay: competition ELISA: oligomers titrated in solution against 0.6 nM antibody, free antibody read on aSyn-coated plate
Method: To measure the binding affinities of select antibodies toward oligomeric alpha-synuclein protein, purified antibodies were probed with different concentrations of human alpha-synuclein oligomers in solution, and the levels of unbound antibody were measured by ELISA analysis. In this experiment, 0.6 nM (0.1 pg/mL) of purified antibody was dissolved in phosphate-buffered saline (PBS) solution. […] The mixtures were gently shaken at room temperature for 1 hour to reach equilibrium. After that, these samples were transferred to an alpha-synuclein protein-coated ELISA plate, and antibody not bound to antigen in the previous solution was detected by direct ELISA.

[25] = target: T8, alpha-synuclein peptide 61-140; assay: peptide ELISA, coated fragment
Method: as §1

[26] = target: T4, human alpha-synuclein monomer; assay: SPR (Biacore), antibody captured, monomer injected, 1:1 fit
Method: (§4) Anti-mouse Fc antibody (obtained from GE Healthcare) was immobilized on the surface of a CM5 chip (obtained from GE Healthcare) through amine-coupling to reach about 6,000 to 8,000 response units (RU). The surface was activated by injection of a mixture of 1-ethyl-3-(3-dimethylaminopropyl)-carbodiimide (EDC) and N-hydroxysuccinimide (NETS), both obtained from GE Healthcare, for 7 minutes at room temperature. […] Both injections were done at room temperature.
(§5) Purified rat anti alpha-synuclein antibody (10 μg/mL) was injected at room temperature and captured to reach 1,000 to 2,000 RU. […] Sensorgrams were fitted using a 1:1 Langmuir model to estimate kₒₙ and koff.

[27] = target: T9, beta-synuclein protein (human, UniProt Q16143 1-134); assay: ELISA on coated synuclein, 1 ug/mL
T9 construct: species read from 'recombinant human alpha-synuclein protein, beta-synuclein protein, and gamma-synuclein protein'
Method: (§6) Binding to different synuclein species was tested using a method similar to the ELISA format described above. Briefly, recombinant human alpha-synuclein protein, beta-synuclein protein, and gamma-synuclein protein was coated onto 96-well Nunc plates at 1 μg/mL. The plates were washed with PBST and blocked with 150 μL of 3% BSA in PBS. The serial dilutions of purified antibodies were applied onto the plate, and the associated antibody was detected with goat anti-rat HRP secondary antibody.

[28] = target: T10, gamma-synuclein protein (human, UniProt O76070 1-127); assay: ELISA on coated synuclein, 1 ug/mL
T10 construct: species read from 'recombinant human alpha-synuclein protein, beta-synuclein protein, and gamma-synuclein protein'
Method: as §6

[29] = target: alpha-synuclein phosphorylated at serine 129 (human, UniProt P37840 1-140); assay: SPR (Biacore), antibody captured, p129-Syn injected
Method: as §4, §5

[30] = target: T11, rat alpha-synuclein (rat, UniProt P37377 1-140); assay: direct ELISA on coated antigen;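 further: plates coated with recombinant human, mouse or rat alpha-synuclein, purified antibody titrated 10 µg/mL down to 0.6 ng/mL for 1 h, bound antibody detected by anti-rat HRP with TMB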
Method: as §3

[31] = target: T4, human alpha-synuclein monomer; assay: direct ELISA on coated antigen;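 further: plates coated with recombinant human, mouse or rat alpha-synuclein, purified antibody titrated 10 µg/mL down to 0.6 ng/mL for 1 h, bound antibody detected by anti-rat HRP with TMB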
Method: as §3

[32] = target: T6, mouse alpha-synuclein; assay: direct ELISA on coated antigen;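 further: plates coated with recombinant human, mouse or rat alpha-synuclein, purified antibody titrated 10 µg/mL down to 0.6 ng/mL for 1 h, bound antibody detected by anti-rat HRP with TMB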
Method: as §3

[33] = target: T4, human alpha-synuclein monomer; assay: direct ELISA, plate coated with 1 µg/mL recombinant human alpha-synuclein, antibody titrated, anti-rat HRP, A450
Method: as §3

[34] = target: T2, alpha-synuclein peptide 95-140; assay: ELISA, plate coated with the peptide or protein, antibody titrated, anti-rat HRP, A450; remark: listed apart in the source
Method: as §1

[35] = target: T4, human alpha-synuclein monomer; assay: as above; remark: listed apart in the source
Method: as §1

[36] = target: T8, alpha-synuclein peptide 61-140; assay: as above; remark: listed apart in the source
Method: as §1

[37] = target: T11, rat alpha-synuclein; assay: direct ELISA; member tied to this end by the EC50 values of Table 6 (2.0/0.03)
Method: as §3

[38] = target: T11, rat alpha-synuclein; assay: direct ELISA on coated antigen; upper end tied to 22D11 by Table 6 (2.0 nM rat / 0.03 nM human);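 on Bmax (O.D. at 450 nm): plates coated with recombinant human, mouse or rat alpha-synuclein, purified antibody titrated 10 µg/mL down to 0.6 ng/mL for 1 h, bound antibody detected by anti-rat HRP with TMB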
Method: as §3

[39] = target: T6, mouse alpha-synuclein; assay: direct ELISA, plate coated with 1 µg/mL recombinant mouse alpha-synuclein, antibody titrated, anti-rat HRP, A450
Method: as §3

Binder	antibody concentration at which ELISA is positive [1]	antibody concentration at which ELISA is positive [4]	antibody concentration at which ELISA is positive [14]	antibody concentration at which ELISA is positive [15]	antibody concentration at which ELISA is positive [16]	IC50 [17]	IC50 [24]	antibody concentration at which ELISA is positive [25]	Kd [26]	koff [26]	kon [26]	binding result [27]	binding result [28]	Kd [29]	koff [29]	kon [29]	Bmax (O.D. at 450 nm) [30]	EC50 [30]	Bmax (O.D. at 450 nm) [31]	EC50 [31]	other results
16F3 (antibody, IgG2a, V domains shown, also called clone 16F3) VH: AVQLVESGGGLVQPKESLKISCAASGFTFSNGAMNWVRQAPGKGLEWVARIRTKPNNYATYYADSVKGRFTISRDDSKSMVYLQMDDLKTEDTAMYYCTADGATPFAYWGQGTLVTVSS VL: DVVLTQTPPTLSATIGQSVSISCRSSQSLLHSNGNTYLHWLLQRPGQSPQLLIYLVSRLESGVPNRFSGSGSGTDFTLKISGVEAEDLGVYYCVQGTHAPFTFGSGTKLEIK	> 2600 ng/mL	< 40 ng/mL	–	–	–	–	–	–	–	–	–	–	–	–	–	–	–	–	–	–	EC50 (read off the curve) [2]: ~0.3 µg/mL; binding result [3]: no binding (tested: 10 µg/ml (1 on the log axis))
20H4_HC5_L1_1 (antibody, V domains shown, also called 20H4_H5_L1_1; hu20H4) VH: EVQLVESGGGLVQPGGSLRLSCAASGFTFSNAAMYWVRQAPGKGLELLARIRTKPNNYATYHADSVKGRFTISRDDSKNTVYLQMNSLRAEDTAVYYCTADMATGDYWGQGTLVTVSS VL: DIQMTQSPSSLSASVGDRVTITCKASQNINNNLDWYQQKPGKAPKPLIYSTNNLKTGVPSRFSGSGSGTDFTLTISSLQPEDFATYYCYQYKSAWTFGQGTKVEIK	–	–	–	–	–	–	–	–	–	–	–	–	–	–	–	–	–	–	–	–	Kd [5]: 0.19 nM; Kd [6]: 0.21 nM; Kd [7]: 0.1 nM; Kd [8]: 0.27 nM; Kd [9]: 0.00886 nM; Kd [10]: 0.0157 nM; Kd [11]: 0.000638 nM; Kd [12]: 0.12 nM
1H5 (antibody, rat IgG2b, V domains shown, also called clone 1H5) VH: AVQLVESGGGLVQPKESLKISCAASGFTFSDAAMYWVRQAPGKGLELVARIRTKPNNYATYYADSVKGRFTISRDDSKSMVYLQMGNLKTEDTAMYYCSADFHYFDYWGQGVMVTVSS VL: DIQMTQSPSVLSASVGDRVTLSCKAGQNINKNLDWYQQKLGEAPKLLISFTNNLQTGVPSRFSGSGSGSDYTLTISSLQPEDVATYYCYQYNSGWTFGGGTKLELK	> 2600 ng/mL	< 40 ng/mL	< 40 ng/mL	> 2600 ng/mL	> 2600 ng/mL	5.86 nM	30.7 nM	< 40 ng/mL	16.2 nM	0.00169 s⁻¹	104000 M⁻¹ s⁻¹	no binding	no binding	23.7 nM	0.00113 s⁻¹	47500 M⁻¹ s⁻¹	0.2 OD	2.97 nM	1.14 OD	0.15 nM	antibody concentration at which ELISA is positive [13]: 640 to 2600 ng/mL; EC50 (read off the curve) [18]: ~0.3 µg/mL; EC50 (read off the curve) [19]: ~0.2 µg/mL; binding result [20]: no binding (tested: 10 µg/ml (1 on the log axis)); binding result [21]: no binding (tested: 10 µg/ml (1 on the log axis)); EC50 (read off the curve) [22]: ~0.2 µg/mL; binding result [23]: no binding (tested: 10 µg/ml (1 on the log axis)); Bmax (O.D. at 450 nm) [32]: 0.16 OD; EC50 [32]: 5.86 nM; EC50 (read off the curve) [33]: ~0.2 µg/mL
22D11 (antibody, rat IgG1, V domains shown, also called clone 22D11) VH: AVQFVESGGGLVRPKESLKISCTASGFTFTNAAIYWVRQAPGKGLECIARIRTKPNNYATYYADSVRGRFTISRDDSKPMVYLQMNELKTEDTAMYYCAADASRGDYWGQGVMVTVSS VL: DIQMTQSPSVLSASVGDRVTFSCKASQNINKNLDWYQQKLGEVPKVLIYFTNNLQTGIPSRFSGSGSGTDYTLTISSLQPEDVATYYCYQYTSGFTFGAGTKLELK	> 2600 ng/mL	< 40 ng/mL	< 40 ng/mL	> 2600 ng/mL	> 2600 ng/mL	4.53 nM	15.2 nM	< 40 ng/mL	18.1 nM	0.00337 s⁻¹	186000 M⁻¹ s⁻¹	no binding	no binding	42.9 nM	0.0035 s⁻¹	81600 M⁻¹ s⁻¹	0.05 OD	2 nM	1.2 OD	0.03 nM	EC50 (read off the curve) [34]: ~0.04 µg/mL; EC50 (read off the curve) [35]: ~0.04 µg/mL; EC50 (read off the curve) [36]: ~0.03 µg/mL; fold higher EC50 for rat than for human alpha-synuclein [37]: 66.7 fold; fold higher EC50 for rat alpha-synuclein compared to human alpha-synuclein [38]: 66.7 fold; binding result [39]: no binding (tested: 10 µg/ml (log 1)); EC50 (read off the curve) [33]: ~0.04 µg/mL
